What was measured:
Assay type in all cases: in vivo, healthy subjects (human)
[1] = system: blood glucose (glucose infusion rate); test: Automated euglycaemic glucose clamp; settings: healthy subjects; single 0.3 IU/kg s.c.; PP population; median, N=39/38
[2] = Pharmacokinetics of plasma insulin after a single subcutaneous dose; settings: healthy subjects, single 0.3 IU/kg s.c., PP population, median
Safety assessments = settings: single 0.3 IU/kg s.c.

In the case of “Humulin‐R: US‐approved reference regular recombinant human insulin product (Eli Lilly and Company)”, the “t50%‐GIR(early)” value [1] is reported as 1.33 h, the “t50%‐GIR(late)” value [1] is reported as 7.03 h and the “tGIR.max (time to maximum glucose infusion rate)” value [1] is reported as 4.15 h. The “λz (terminal elimination rate constant of insulin)” value ([2]; N=40/41) was 0.5373 h⁻¹, the “t50%‐ins(late)” value ([2]; N=41) was 6.23 h and the tolerability (Safety assessments; healthy subjects) was “generally well tolerated”. For the same substance, the “headache (number of events)” value (Safety assessments; safety analysis set) was “eight”, the “injection‐site reactions (number of AEs)” value (Safety assessments; safety analysis set) was “four” and the subjects with headache (Safety assessments; safety analysis set) was “eight”. The “subjects with injection‐site reactions” value (Safety assessments; safety analysis set) was “three”.

From paper PMC9303355 (Diabetes, Obesity & Metabolism, 2022)
